In the assay the target is T1, chondroitin sulfate proteoglycan 4 (CSPG4), human (human, UniProt Q6UVK1 30-2322).
T1 construct: whole, on cells; Cell surface proteoglycan; also called MCSP; NG2
As to the kind of experiment: reactivity of single scFv clones with CSPG4+ SK-MEL-28 melanoma cells and CSPG4- LG2 B lymphoid cells.

T1 sequence (Q6UVK1 30-2322): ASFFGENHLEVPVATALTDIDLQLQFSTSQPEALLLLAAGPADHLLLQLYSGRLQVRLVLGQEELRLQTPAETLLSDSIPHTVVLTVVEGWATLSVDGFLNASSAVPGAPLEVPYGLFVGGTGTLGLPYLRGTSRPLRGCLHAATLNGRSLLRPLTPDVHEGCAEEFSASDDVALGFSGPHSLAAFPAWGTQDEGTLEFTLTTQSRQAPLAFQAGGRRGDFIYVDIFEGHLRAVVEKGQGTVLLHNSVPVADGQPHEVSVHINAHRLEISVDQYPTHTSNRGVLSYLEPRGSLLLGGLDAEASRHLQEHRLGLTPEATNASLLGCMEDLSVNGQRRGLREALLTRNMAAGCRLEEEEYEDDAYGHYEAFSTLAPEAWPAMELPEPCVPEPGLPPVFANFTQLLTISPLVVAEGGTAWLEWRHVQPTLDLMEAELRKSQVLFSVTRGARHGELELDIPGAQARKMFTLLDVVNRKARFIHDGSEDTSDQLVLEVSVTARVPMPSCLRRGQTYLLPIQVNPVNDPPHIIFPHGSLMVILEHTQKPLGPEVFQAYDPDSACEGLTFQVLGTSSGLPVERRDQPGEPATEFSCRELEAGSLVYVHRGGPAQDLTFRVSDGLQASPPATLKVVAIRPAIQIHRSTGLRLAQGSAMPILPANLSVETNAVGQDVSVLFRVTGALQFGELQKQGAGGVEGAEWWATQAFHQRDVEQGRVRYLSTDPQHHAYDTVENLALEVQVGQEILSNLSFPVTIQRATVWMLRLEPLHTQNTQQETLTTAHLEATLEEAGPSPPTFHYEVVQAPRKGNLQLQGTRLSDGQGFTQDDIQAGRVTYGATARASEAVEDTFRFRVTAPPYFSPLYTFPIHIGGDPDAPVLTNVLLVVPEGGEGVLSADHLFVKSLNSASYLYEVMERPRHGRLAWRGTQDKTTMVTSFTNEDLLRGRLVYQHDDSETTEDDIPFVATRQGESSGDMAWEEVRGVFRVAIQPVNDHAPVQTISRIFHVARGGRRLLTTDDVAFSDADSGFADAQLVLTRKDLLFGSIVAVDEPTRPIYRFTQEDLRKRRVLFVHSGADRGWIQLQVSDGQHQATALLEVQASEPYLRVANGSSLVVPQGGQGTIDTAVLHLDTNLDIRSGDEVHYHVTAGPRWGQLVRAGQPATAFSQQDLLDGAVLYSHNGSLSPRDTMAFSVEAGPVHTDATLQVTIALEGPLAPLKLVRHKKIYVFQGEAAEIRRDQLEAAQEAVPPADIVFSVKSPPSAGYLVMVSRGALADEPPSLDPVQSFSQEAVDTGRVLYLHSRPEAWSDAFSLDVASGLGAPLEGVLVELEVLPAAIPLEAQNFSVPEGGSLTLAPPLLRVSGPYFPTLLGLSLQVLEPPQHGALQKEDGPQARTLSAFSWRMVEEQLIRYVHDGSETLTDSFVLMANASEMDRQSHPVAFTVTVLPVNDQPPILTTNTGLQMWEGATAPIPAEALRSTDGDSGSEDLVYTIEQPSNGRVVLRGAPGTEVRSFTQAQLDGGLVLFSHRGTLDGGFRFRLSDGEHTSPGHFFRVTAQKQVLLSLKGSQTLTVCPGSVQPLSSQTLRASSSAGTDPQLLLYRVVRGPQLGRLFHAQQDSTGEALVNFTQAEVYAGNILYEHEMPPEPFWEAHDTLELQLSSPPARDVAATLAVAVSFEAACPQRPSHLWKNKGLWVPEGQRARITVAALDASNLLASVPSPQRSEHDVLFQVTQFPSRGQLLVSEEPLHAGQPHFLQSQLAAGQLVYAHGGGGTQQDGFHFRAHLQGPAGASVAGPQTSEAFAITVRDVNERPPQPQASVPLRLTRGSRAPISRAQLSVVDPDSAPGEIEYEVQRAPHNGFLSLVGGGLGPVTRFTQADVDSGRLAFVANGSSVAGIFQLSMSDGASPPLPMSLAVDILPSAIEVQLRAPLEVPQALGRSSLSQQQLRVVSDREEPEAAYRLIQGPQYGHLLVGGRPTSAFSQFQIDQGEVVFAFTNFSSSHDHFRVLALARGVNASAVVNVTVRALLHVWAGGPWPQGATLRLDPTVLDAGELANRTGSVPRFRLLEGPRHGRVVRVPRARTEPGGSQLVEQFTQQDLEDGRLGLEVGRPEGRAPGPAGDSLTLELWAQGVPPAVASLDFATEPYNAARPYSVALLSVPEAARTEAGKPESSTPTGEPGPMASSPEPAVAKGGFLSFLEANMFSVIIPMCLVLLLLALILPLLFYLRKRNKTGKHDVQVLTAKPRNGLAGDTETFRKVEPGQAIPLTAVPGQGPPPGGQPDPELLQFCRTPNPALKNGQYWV

B1: scFv SK5 (scFv)
scFv: MAEVQLVESGGGVVRPGGSLRLSCAASGFTFDDYGMSWVRQAPGKGLEWVSGINWNGGSTGYADSVKGRFTISRDNAKNSLYLQMNSLRAEDTAVYYCARGVLSRYFDYWGQGTLVTVSSGGGGSGGGGSGGGGSEIELTQSPATLSLSPGERATLSCRASQSVSSYLAWYQQKPGQAPRLLIYDASNRATGIPARFSGSGSGTDFTLTISSLEPEDFAVYYCQQRSNWPPAFGGGTKVEIKRAA
notes: Fully human scFv from a semi-synthetic phage display library; Tested as soluble scFv in supernatant with a c-Myc tag, detected through mAb 9E10; also called CSPG4-specific human scFv SK5
As to B1, the binding result was “binds”.
